Experiment [1] has as its target hen egg lysozyme, P00698. The experiment is described as follows: ELISA. Particulars: chain shown with the change;, read off a plot. (In general: In an ELISA, binding on a coated surface is turned into a signal by an enzyme label.)
The target of experiment [2] is hen egg lysozyme, P00698. Put plainly: SPR. Particulars: chain shown with the change;, read off a plot.
Sequence of hen egg lysozyme, P00698 (P00698 19-147): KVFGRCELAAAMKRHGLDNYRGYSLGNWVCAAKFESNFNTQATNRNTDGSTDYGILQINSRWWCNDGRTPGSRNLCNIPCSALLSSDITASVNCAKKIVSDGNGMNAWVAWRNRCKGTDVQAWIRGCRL

B1: anti-lysozyme VHH D3-L11, wild type A79L (protein)
chain: DVQLVESGGGSVQAGGSLRLSCAASGSTDSIEYMTWFRQAPGKAREGVAALYTHTGNTYYTDSVKGRFTISQDKAKNMLYLRMDSVKSEDTAIYTCGATRKYVPVRFALDQSSYDYWGQGTQVTVSS
B1: the EC50 – broadly, the concentration that produces a half-maximal response – with hen egg lysozyme, P00698 [1] (parent: est. 0.92) came out at 1.5 µg/mL. Besides, the equilibrium dissociation constant (Kd) (in general, a measure of binding affinity in units of concentration) in the experiment with hen egg lysozyme, P00698 [2] (parent: est. 3.1e-12) came to 0.0067 nM.

B2: anti-lysozyme VHH D3-L11, wild type A24L (protein)
chain: DVQLVESGGGSVQAGGSLRLSCALSGSTDSIEYMTWFRQAPGKAREGVAALYTHTGNTYYTDSVKGRFTISQDKAKNMAYLRMDSVKSEDTAIYTCGATRKYVPVRFALDQSSYDYWGQGTQVTVSS
With B2, the Kd with hen egg lysozyme, P00698 [2] (parent: est. 3.3 pM) came out at 0.045 nM.

B3: anti-lysozyme VHH D3-L11, wild type A79I (protein)
chain: DVQLVESGGGSVQAGGSLRLSCAASGSTDSIEYMTWFRQAPGKAREGVAALYTHTGNTYYTDSVKGRFTISQDKAKNMIYLRMDSVKSEDTAIYTCGATRKYVPVRFALDQSSYDYWGQGTQVTVSS
Consider B3, for which the EC50 in the experiment with hen egg lysozyme, P00698 [1] (parent: est. 0.92) stood at 0.92 µg/mL. Also, the Kd with hen egg lysozyme, P00698 [2] (parent: est. 3.1e-12) was 0.0049 nM.

B4: anti-lysozyme VHH D3-L11, wild type A79N (protein)
chain: DVQLVESGGGSVQAGGSLRLSCAASGSTDSIEYMTWFRQAPGKAREGVAALYTHTGNTYYTDSVKGRFTISQDKAKNMNYLRMDSVKSEDTAIYTCGATRKYVPVRFALDQSSYDYWGQGTQVTVSS
For B4, the EC50 in the experiment with hen egg lysozyme, P00698 [1] (parent: est. 0.92) worked out at 6.7 µg/mL. Further, the Kd with hen egg lysozyme, P00698 [2] (parent: est. 3.1e-12) is 0.0081 nM.

B5: anti-lysozyme VHH D3-L11, wild type A79S (protein)
chain: DVQLVESGGGSVQAGGSLRLSCAASGSTDSIEYMTWFRQAPGKAREGVAALYTHTGNTYYTDSVKGRFTISQDKAKNMSYLRMDSVKSEDTAIYTCGATRKYVPVRFALDQSSYDYWGQGTQVTVSS
As for B5, in the experiment with hen egg lysozyme, P00698 [1] (parent: est. 0.92), the EC50 was 7.6 µg/mL. In the experiment with hen egg lysozyme, P00698 [2] (parent: est. 3.1e-12), the Kd came to 0.012 nM.

B6: anti-lysozyme VHH D3-L11, wild type A79W (protein)
chain: DVQLVESGGGSVQAGGSLRLSCAASGSTDSIEYMTWFRQAPGKAREGVAALYTHTGNTYYTDSVKGRFTISQDKAKNMWYLRMDSVKSEDTAIYTCGATRKYVPVRFALDQSSYDYWGQGTQVTVSS
In the case of B6, the EC50 with hen egg lysozyme, P00698 [1] (parent: est. 0.92) stood at 1900 µg/mL. Besides, in the experiment with hen egg lysozyme, P00698 [2] (parent: est. 3.1e-12), the Kd stood at 0.015 nM.

B7: anti-lysozyme VHH D3-L11, wild type A79M (protein)
chain: DVQLVESGGGSVQAGGSLRLSCAASGSTDSIEYMTWFRQAPGKAREGVAALYTHTGNTYYTDSVKGRFTISQDKAKNMMYLRMDSVKSEDTAIYTCGATRKYVPVRFALDQSSYDYWGQGTQVTVSS
B7: the EC50 in the experiment with hen egg lysozyme, P00698 [1] (parent: est. 0.92) came out at 4.2 µg/mL. Further, the Kd with hen egg lysozyme, P00698 [2] (parent: est. 3.1e-12) came out at 0.0068 nM.

B8: anti-lysozyme VHH D3-L11, wild type A79Y (protein)
chain: DVQLVESGGGSVQAGGSLRLSCAASGSTDSIEYMTWFRQAPGKAREGVAALYTHTGNTYYTDSVKGRFTISQDKAKNMYYLRMDSVKSEDTAIYTCGATRKYVPVRFALDQSSYDYWGQGTQVTVSS
For the molecule B8, the Kd in the experiment with hen egg lysozyme, P00698 [2] (parent: est. 3.1e-12) stood at 0.0055 nM.

B9: anti-lysozyme VHH D3-L11, wild type A79V (protein)
chain: DVQLVESGGGSVQAGGSLRLSCAASGSTDSIEYMTWFRQAPGKAREGVAALYTHTGNTYYTDSVKGRFTISQDKAKNMVYLRMDSVKSEDTAIYTCGATRKYVPVRFALDQSSYDYWGQGTQVTVSS
In the case of B9, the concentration for a half-maximal effect (EC50) with hen egg lysozyme, P00698 [1] (parent: est. 0.92) amounted to 2.5 µg/mL. The Kd with hen egg lysozyme, P00698 [2] (parent: est. 3.1e-12) amounted to 0.0036 nM.

B10: anti-lysozyme VHH D3-L11, wild type A79R (protein)
chain: DVQLVESGGGSVQAGGSLRLSCAASGSTDSIEYMTWFRQAPGKAREGVAALYTHTGNTYYTDSVKGRFTISQDKAKNMRYLRMDSVKSEDTAIYTCGATRKYVPVRFALDQSSYDYWGQGTQVTVSS
For B10, in the experiment with hen egg lysozyme, P00698 [1] (parent: est. 0.92), the EC50 was 31 µg/mL. In the experiment with hen egg lysozyme, P00698 [2] (parent: est. 3.1e-12), the Kd was determined as 0.026 nM.

B11: anti-lysozyme VHH D3-L11, wild type G26I (protein)
chain: DVQLVESGGGSVQAGGSLRLSCAASISTDSIEYMTWFRQAPGKAREGVAALYTHTGNTYYTDSVKGRFTISQDKAKNMAYLRMDSVKSEDTAIYTCGATRKYVPVRFALDQSSYDYWGQGTQVTVSS
Regarding B11, in the experiment with hen egg lysozyme, P00698 [2] (parent: est. 3.3 pM), the Kd is 0.026 nM.

B12: anti-lysozyme VHH D3-L11, wild type A79H (protein)
chain: DVQLVESGGGSVQAGGSLRLSCAASGSTDSIEYMTWFRQAPGKAREGVAALYTHTGNTYYTDSVKGRFTISQDKAKNMHYLRMDSVKSEDTAIYTCGATRKYVPVRFALDQSSYDYWGQGTQVTVSS
In the case of B12, the EC50 with hen egg lysozyme, P00698 [1] (parent: est. 0.92) was determined as 120 µg/mL. In the experiment with hen egg lysozyme, P00698 [2] (parent: est. 3.1e-12), the Kd worked out at 0.023 nM.

B13: anti-lysozyme VHH D3-L11, wild type A79F (protein)
chain: DVQLVESGGGSVQAGGSLRLSCAASGSTDSIEYMTWFRQAPGKAREGVAALYTHTGNTYYTDSVKGRFTISQDKAKNMFYLRMDSVKSEDTAIYTCGATRKYVPVRFALDQSSYDYWGQGTQVTVSS
Consider B13, for which the equilibrium dissociation constant (Kd) is 0.012 nM with hen egg lysozyme, P00698 [2] (parent: est. 3.1e-12) and 0.012 nM with hen egg lysozyme, P00698 [2] (parent: est. 3.3 pM).

B14: anti-lysozyme VHH D3-L11, wild type A79C (protein)
chain: DVQLVESGGGSVQAGGSLRLSCAASGSTDSIEYMTWFRQAPGKAREGVAALYTHTGNTYYTDSVKGRFTISQDKAKNMCYLRMDSVKSEDTAIYTCGATRKYVPVRFALDQSSYDYWGQGTQVTVSS
In the case of B14, the EC50 with hen egg lysozyme, P00698 [1] (parent: est. 0.92) was determined as 10 µg/mL. The Kd in the experiment with hen egg lysozyme, P00698 [2] (parent: est. 3.1e-12) amounted to 0.0037 nM.

B15: anti-lysozyme VHH D3-L11, wild type G97F (protein)
chain: DVQLVESGGGSVQAGGSLRLSCAASGSTDSIEYMTWFRQAPGKAREGVAALYTHTGNTYYTDSVKGRFTISQDKAKNMAYLRMDSVKSEDTAIYTCFATRKYVPVRFALDQSSYDYWGQGTQVTVSS
As for B15, the EC50 in the experiment with hen egg lysozyme, P00698 [1] (parent: est. 0.90) came out at 3.2 µg/mL. For the same molecule, the Kd in the experiment with hen egg lysozyme, P00698 [2] (parent: est. 3.3 pM) is 0.0062 nM.

B16: anti-lysozyme VHH D3-L11, wild type A79T (protein)
chain: DVQLVESGGGSVQAGGSLRLSCAASGSTDSIEYMTWFRQAPGKAREGVAALYTHTGNTYYTDSVKGRFTISQDKAKNMTYLRMDSVKSEDTAIYTCGATRKYVPVRFALDQSSYDYWGQGTQVTVSS
For B16, the equilibrium dissociation constant (Kd) in the experiment with hen egg lysozyme, P00698 [2] (parent: est. 3.1e-12) turned out to be 0.013 nM.

B17: anti-lysozyme VHH D3-L11, wild type A79Q (protein)
chain: DVQLVESGGGSVQAGGSLRLSCAASGSTDSIEYMTWFRQAPGKAREGVAALYTHTGNTYYTDSVKGRFTISQDKAKNMQYLRMDSVKSEDTAIYTCGATRKYVPVRFALDQSSYDYWGQGTQVTVSS
Regarding B17, in the experiment with hen egg lysozyme, P00698 [1] (parent: est. 0.92), the EC50 is 9.5 µg/mL. Besides, the Kd with hen egg lysozyme, P00698 [2] (parent: est. 3.1e-12) was 0.0072 nM.

The values above are taken from paper PMC10039853.
